In patent publication US20200149021, “SYSTEM AND METHOD FOR GENOME EDITING” (INSTITUTE OF ZOOLOGY, CHINESE ACADEMY OF SCIENCES, published 2020):

Tests used:
[1] = target: T1, PxCpf1 (Pseudobutyrivibrio xylanivorans); experiment: cell_activity; PAM TTTC; (T)TTN; T7EI; details: tags: HA (2A-eGFP vector)
T1 chain: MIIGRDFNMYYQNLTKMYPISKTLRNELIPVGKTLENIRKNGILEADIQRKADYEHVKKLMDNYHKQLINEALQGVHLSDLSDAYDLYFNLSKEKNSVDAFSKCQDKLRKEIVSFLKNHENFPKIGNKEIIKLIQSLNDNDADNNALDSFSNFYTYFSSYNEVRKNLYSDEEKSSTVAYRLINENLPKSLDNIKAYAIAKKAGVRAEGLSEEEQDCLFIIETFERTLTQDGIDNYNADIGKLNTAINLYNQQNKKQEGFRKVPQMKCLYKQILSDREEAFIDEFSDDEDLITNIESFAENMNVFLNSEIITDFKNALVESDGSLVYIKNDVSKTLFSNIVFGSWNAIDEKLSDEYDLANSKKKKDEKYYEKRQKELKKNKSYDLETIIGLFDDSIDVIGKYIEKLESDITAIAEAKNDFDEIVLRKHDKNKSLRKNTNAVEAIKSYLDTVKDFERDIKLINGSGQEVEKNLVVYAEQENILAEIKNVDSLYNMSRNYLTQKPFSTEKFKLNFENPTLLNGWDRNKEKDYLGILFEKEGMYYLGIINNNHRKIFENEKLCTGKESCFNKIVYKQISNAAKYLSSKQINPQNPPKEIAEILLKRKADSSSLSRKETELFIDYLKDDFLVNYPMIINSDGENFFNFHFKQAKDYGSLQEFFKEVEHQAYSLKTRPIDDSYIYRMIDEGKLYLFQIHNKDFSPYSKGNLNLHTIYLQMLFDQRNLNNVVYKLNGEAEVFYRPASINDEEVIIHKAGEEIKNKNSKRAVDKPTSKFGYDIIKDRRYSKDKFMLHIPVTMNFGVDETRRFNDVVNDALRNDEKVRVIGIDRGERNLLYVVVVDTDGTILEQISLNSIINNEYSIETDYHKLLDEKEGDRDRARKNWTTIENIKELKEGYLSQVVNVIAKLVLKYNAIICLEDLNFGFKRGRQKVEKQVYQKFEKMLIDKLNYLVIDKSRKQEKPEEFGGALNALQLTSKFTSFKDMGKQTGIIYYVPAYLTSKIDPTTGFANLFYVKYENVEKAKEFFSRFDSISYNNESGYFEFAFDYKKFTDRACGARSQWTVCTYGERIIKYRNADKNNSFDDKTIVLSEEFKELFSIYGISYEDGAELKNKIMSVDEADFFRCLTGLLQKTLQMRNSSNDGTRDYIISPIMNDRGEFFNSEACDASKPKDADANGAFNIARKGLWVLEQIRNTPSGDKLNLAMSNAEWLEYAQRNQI
Procedure: (§1) GFP-positive cells were sorted by FACS, lysed with Buffer L+ 1/100V Protease K (Biotool) at 55° C. for 30 min, inactivated at 95° C. for 5 min, and directly used for PCR detection. Appropriate primers were designed near the Cpf1 targeting site, and the amplified product was purified using DNA Clean & Concentrator™-5 kit (ZYMO Research). 200 ng of purified PCR product was added into 1 uL of NEBuffer2 (NEB) and diluted to 10 uL with ddH₂O. Then, heterodimers were formed by re-annealing according to the previously reported method (Li, W., et al., Simultaneous generation and germline transmission of multiple gene mutations in rat using CRISPR-Cas systems. Nat Biotechnol, 2013. 31(8): p. 684-6). The reannealed product was added with 0.3 uL of T7EI endnucelease and 1/10 V NEBuffer2 (NEB), and digested at 37° C. for 1 h 30 min. Genotype analysis was performed by 3% TAE-Gel electrophoresis. Indels were calculated according to the method reported in the previous article (Cong, L., et al., Multiplex genome engineering using CRISPR/Cas systems. Science, 2013. 339(6121): p. 819-23).
(§2) The cells were transfected with Cpf1, crRNA31, and crRNA2 plasmids, and it was confirmed by PCR and T7EI analysis that crRNA31 can increase the editing efficiency of five Cpf1s of ArCpf1, BsCpf1, HkCpf1, PrCpf1, and PxCpf1 at the site MeCP2-4 by two folds (FIG. 13B).

[2] = target: T2, PrCpf1 (Pseudobutyrivibrio ruminis); experiment: cell_activity; PAM TTTC; (T)TTN; T7EI; details: tags: HA (2A-eGFP vector)
T2 chain: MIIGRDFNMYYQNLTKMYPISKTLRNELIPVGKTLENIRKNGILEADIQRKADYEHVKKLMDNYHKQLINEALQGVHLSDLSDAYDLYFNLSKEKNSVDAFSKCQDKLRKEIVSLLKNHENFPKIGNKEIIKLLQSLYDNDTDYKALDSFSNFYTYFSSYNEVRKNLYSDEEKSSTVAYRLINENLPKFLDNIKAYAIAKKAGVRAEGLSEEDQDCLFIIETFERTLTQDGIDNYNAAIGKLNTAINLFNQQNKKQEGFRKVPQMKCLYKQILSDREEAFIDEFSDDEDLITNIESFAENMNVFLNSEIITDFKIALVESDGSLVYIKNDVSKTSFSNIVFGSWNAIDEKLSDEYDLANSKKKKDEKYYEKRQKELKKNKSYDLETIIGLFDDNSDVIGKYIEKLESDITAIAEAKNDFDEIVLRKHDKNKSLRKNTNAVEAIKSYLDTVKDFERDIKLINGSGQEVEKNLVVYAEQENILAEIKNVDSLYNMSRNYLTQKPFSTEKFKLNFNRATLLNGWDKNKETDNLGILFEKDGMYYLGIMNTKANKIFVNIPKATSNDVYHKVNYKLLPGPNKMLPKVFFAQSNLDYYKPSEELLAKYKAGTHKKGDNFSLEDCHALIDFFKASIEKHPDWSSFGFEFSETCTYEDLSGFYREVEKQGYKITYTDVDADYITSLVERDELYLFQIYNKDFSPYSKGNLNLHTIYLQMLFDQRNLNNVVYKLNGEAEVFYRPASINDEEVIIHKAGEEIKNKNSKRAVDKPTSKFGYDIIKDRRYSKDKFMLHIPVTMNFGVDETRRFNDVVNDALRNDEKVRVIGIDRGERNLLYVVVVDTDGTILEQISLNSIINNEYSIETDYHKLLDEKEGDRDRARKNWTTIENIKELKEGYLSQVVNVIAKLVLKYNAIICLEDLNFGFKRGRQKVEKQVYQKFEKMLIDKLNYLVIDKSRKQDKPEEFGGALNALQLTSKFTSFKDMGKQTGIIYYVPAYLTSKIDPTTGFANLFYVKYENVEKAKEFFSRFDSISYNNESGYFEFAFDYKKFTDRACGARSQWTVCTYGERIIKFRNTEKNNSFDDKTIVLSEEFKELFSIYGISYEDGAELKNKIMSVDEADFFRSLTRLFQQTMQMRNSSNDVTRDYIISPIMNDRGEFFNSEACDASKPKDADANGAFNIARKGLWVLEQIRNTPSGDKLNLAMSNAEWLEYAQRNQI
Procedure: as §1, §2

B1: crRNA31 MeCP2 site 4 ; Mouse MeCP2 site 4 (ssRNA ; dsDNA)
RNA: AUUUCUACUAUGGUAGAUGUGUCCAACCUUCAGGCAAGGUG
DNA 1: TTTCGTGTCCAACCTTCAGGCAAGGTG
DNA 2: CACCTTGCCTGAAGGTTGGACACGAAA
editing efficiency [1]: ~2 fold vs crRNA2 | editing efficiency [2]: ~2 fold vs crRNA2
